Article PMC2940226 (Neurobiology of disease, 2010)

Molecular target: GABAA receptor γ2 subunit (rat (endogenous in hippocampus), UniProt P18508 39-466)
Assay: co-IP

Sequence of GABAA receptor γ2 subunit (P18508 39-466): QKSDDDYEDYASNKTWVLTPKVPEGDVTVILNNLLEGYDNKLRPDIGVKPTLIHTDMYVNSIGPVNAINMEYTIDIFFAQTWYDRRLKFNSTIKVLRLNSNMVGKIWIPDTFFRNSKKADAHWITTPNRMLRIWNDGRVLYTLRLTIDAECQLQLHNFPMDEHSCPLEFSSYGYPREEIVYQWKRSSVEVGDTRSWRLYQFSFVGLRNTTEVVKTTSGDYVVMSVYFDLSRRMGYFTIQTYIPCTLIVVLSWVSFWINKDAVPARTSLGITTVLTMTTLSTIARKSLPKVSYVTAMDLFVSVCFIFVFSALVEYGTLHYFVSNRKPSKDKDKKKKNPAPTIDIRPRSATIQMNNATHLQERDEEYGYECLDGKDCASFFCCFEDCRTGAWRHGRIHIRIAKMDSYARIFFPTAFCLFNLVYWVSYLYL

B1: GABAA receptor α4 subunit (natural protein, rat (endogenous in hippocampus), UniProt P28471 36-552, looked up)
chain: QNSKDEKLCPENFTRILDSLLDGYDNRLRPGFGGPVTEVKTDIYVTSFGPVSDVEMEYTMDVFFRQTWIDKRLKYDGPIEILRLNNMMVTKVWTPDTFFRNGKKSVSHNMTAPNKLFRIMRNGTILYTMRLTISAECPMRLVDFPMDGHACPLKFGSYAYPKSEMIYTWTKGPEKSVEVPKESSSLVQYDLIGQTVSSETIKSITGEYIVMTVYFHLRRKMGYFMIQTYIPCIMTVILSQVSFWINKESVPARTVFGITTVLTMTTLSISARHSLPKVSYATAMDWFIAVCFAFVFSALIEFAAVNYFTNIQMQKAKKKISKPPPEVPAAPVLKEKHTETSLQNTHANLNMRKRTNALVHSESDVNSRTEVGNHSSKTTAAQESSETTPKAHLASSPNPFSRANAAETISAAARGLSSAASPSPHGTLQPAPLRSASARPAFGARLGRIKTTVNTTGVPGNVSATPPPSAPPPSGSGTSKIDKYARILFPVTFGAFNMVYWVVYLSKDTMEKSESLM
  ratio of the α4-γ2 co-precipitation (normalised α4 to γ2), control animals: 0.55 ± 0.02
  ratio of the α4-γ2 co-precipitation (normalised α4 to γ2), epileptic animals: 1.12 ± 0.24
